Measurements taken from article PMC5766252, “Indole-3-acetaldehyde dehydrogenase-dependent auxin synthesis contributes to virulence of Pseudomonas syringae strain DC3000” (PLoS Pathogens, 2018).

Columns and labels:
AldA = biological target: T1, AldA (Pseudomonas syringae group genomosp. 3, UniProt Q88BC5); test: X-ray crystal structure of complex; format: binding; conditions: pH 8.5
T1 construct: gene PSPTO_0092; full-length, N-terminal hexahistidine tag (pET28a, NdeI/XhoI), E. coli BL21(DE3); tetramer; catalytic Cys302

[1] = test system: NC(=O)c1ccc[n+]([C@@H]2O[C@H](COP(=O)(O)OP(=O)(O)OC[C@H]3O[C@@H](n4cnc5c(N)ncnc54)[C@H](O)[C@@H]3O)[C@@H](O)[C@H]2O)c1; test: purified protein; conditions: 1.0 mM IAAld, 100 mM Tris-HCl pH 8.0, 100 mM KCl, 25 °C, NAD+ varied, varied: cofactor
[2] = test system: NC(=O)c1ccc[n+]([C@@H]2O[C@H](COP(=O)(O)OP(=O)(O)OC[C@H]3O[C@@H](n4cnc5c(N)ncnc54)[C@H](OP(=O)(O)O)[C@@H]3O)[C@@H](O)[C@H]2O)c1; test: purified protein; conditions: 1.0 mM IAAld, 100 mM Tris-HCl pH 8.0, 100 mM KCl, 25 °C, NADP+ varied, varied: cofactor
O=CCc1c[nH]c2ccccc12 = test: purified protein; conditions: 1.0 mM NAD+, 100 mM Tris-HCl pH 8.0, 100 mM KCl, 25 °C, IAAld varied 0.05-2.5 mM
[3] = biological target: Aldehyde dehydrogenase AldB (PSPTO_2673) (Pseudomonas syringae pv. tomato strain DC3000); test: SEC; His-tagged protein on a Superdex-200 26/60 column in 25 mM Hepes (pH 7.5), 100 mM NaCl; column calibrated with molecular weight standards
[4] = biological target: Aldehyde dehydrogenase AldC (PSPTO_3644) (Pseudomonas syringae pv. tomato strain DC3000); test: as above
[5] = biological target: the molecule itself; test: as above

Molecule	Km [1] [µM]	kcat [1] [s⁻¹]	kcat/Km [1] [M⁻¹ s⁻¹]	Km (O=CCc1c[nH]c2ccccc12)	kcat (O=CCc1c[nH]c2ccccc12) [s⁻¹]	kcat/Km (O=CCc1c[nH]c2ccccc12) [M⁻¹ s⁻¹]	other results
O=C(O)Cc1c[nH]c2ccccc12 [IAA]							X-ray crystal structure of complex (AldA; 5 mM NAD+ and 5 mM IAA, dead-end ternary complex, 1.93 Å, substrate site near Cys302): AldA (5IUU); AldA•NAD^+ (5IUV); and AldA•NAD^+•IAA (5IUW)
NC(=O)c1ccc[n+]([C@@H]2O[C@H](COP(=O)(O)OP(=O)(O)OC[C@H]3O[C@@H](n4cnc5c(N)ncnc54)[C@H](O)[C@@H]3O)[C@@H](O)[C@H]2O)c1 [NAD^+]							X-ray crystal structure of complex (AldA; 5 mM NAD+, cofactor binding site, also in the ternary complex 5IUW): AldA (5IUU); AldA•NAD^+ (5IUV); and AldA•NAD^+•IAA (5IUW)
AldA (Pseudomonas syringae pv. tomato str. DC3000)	42 ± 8	3.23 ± 0.15	77400	119 ± 37 µM	3.9 ± 0.35	32800	Km [2]: 1,960 ± 182 µM; kcat [2]: 0.5 ± 0.0167 s⁻¹; kcat/Km [2]: 252 M⁻¹ s⁻¹
AldB (Pseudomonas syringae pv. tomato str. DC3000)	33.4 ± 9.2	0.035 ± 0.00167	1040	595 ± 39 µM	0.145 ± 0.00333	244	
AldC (Pseudomonas syringae pv. tomato str. DC3000)	445 ± 99	0.00667 ± 0.000167	14	1,280 ± 161 µM	0.06 ± 0.00333	46	
Aldehyde dehydrogenase AldB (PSPTO_2673) (enzyme)							stoichiometry N [3]: 4
Aldehyde dehydrogenase AldC (PSPTO_3644) (enzyme)							stoichiometry N [4]: 2
Indole-3-acetaldehyde dehydrogenase AldA (PSPTO_0092) (enzyme, AldA (PSPTO_0092), aldehyde dehydrogenase of Pseudomonas syringae pv. tomato strain DC3000; estimated Mr 52.7 kDa without the tag; The full-length CDS is stated for the pET21a-0092 construct; pET28a-AldA was made with the same NdeI and XhoI sites; also called IAAld dehydrogenase; source: E. coli BL21 (DE3), pET28a-AldA, purified (Ni-NTA, Superdex-200 size exclusion); not shown: His6, N-terminal, …) MTTLTRADWEQRAQNLKIEGRAFIQGEYTAAASGETFDCISPVDGRLLAKVASCDAADAQRAVESARSAFDSGAWSRLAPAKRKATMIRFAGLLEQNAEELALLETLDMGKPISDSLGVDIPGGARALSWSGEAIDKLYDEVAATPHDQLGLVTREPVGVVAAIVPWNFPLMMACWKLGPALSTGNSVVLKPSEKSPLTAIRIAQLAIEAGIPAGVLNVLPGYGHTVGKALALHMDVDTVVFTGSTKIAKQLMIYAGESNMKRVWLEAGGKSPNIVFADAPDLQAAADSAASAIAFNQGEVCTAGSRLLVERSIKDRFLPMVIEALGTWKPGNPLDPATNVGALVDTQQMNTVLSYIAAGHTDGARLVAGGKQILQETGGTYVEPTIFDGVNNAMRIAQEEIFGPVLSVLTFDTAEEAIQIANDTPYGLAAAVWTANLSKAHLTARALRAGSVWVNQYDGGDMTAPFGGFKQSGNGRDKSLHAFDKYTELKSTWIKL							stoichiometry N [5]: 4
